According to patent US20260144882A1 (BIO THERA SOLUTIONS, published 2026):
Values joined by “and” are separate entries in the source; they are usually repeats but may differ in a detail not shown here. Equal values may be shown once. Read-outs that look alike come from different tables or passages of the source.

T1: human Nectin-4 extracellular antigen hNectin-4-His (human, UniProt Q96NY8 32-349)
T1 construct: C-terminal 8xHis tag included
T1 sequence: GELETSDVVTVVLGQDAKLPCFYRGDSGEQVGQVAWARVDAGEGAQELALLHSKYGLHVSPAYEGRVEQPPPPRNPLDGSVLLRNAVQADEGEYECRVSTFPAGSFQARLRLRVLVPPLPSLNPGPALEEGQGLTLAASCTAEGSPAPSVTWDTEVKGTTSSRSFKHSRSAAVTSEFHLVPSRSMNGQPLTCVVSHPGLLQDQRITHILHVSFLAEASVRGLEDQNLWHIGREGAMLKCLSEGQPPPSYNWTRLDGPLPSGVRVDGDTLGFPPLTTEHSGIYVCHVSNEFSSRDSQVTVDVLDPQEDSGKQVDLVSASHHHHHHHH

T2: human Nectin-4, full length on cells (human, UniProt Q96NY8 32-510)
T2 construct: whole, on cells; T-47D cells positive for Nectin-4 expression; also called Nectin-4 on T-47D cells; CHO-Nectin-4
T2 sequence (looked up): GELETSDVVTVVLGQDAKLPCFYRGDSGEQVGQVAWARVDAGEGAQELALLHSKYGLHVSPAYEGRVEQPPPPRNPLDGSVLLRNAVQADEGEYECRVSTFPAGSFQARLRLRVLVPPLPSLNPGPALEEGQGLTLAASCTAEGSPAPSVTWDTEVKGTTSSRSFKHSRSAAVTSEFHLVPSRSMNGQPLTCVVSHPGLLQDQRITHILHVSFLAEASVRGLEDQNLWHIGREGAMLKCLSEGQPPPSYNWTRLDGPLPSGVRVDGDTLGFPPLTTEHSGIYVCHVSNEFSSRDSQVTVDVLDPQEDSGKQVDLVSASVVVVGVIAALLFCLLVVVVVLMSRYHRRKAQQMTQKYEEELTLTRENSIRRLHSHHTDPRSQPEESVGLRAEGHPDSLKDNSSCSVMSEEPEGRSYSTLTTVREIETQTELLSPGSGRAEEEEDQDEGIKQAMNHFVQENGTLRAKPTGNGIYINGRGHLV

T3: monkey cNectin-4 protein (ACRO, NE4-C52H4) (cynomolgus monkey, UniProt A0A2K5WES1 32-349)
T3 construct: bought; construct not described; also called cynomolgus monkey Nectin-4
T3 sequence: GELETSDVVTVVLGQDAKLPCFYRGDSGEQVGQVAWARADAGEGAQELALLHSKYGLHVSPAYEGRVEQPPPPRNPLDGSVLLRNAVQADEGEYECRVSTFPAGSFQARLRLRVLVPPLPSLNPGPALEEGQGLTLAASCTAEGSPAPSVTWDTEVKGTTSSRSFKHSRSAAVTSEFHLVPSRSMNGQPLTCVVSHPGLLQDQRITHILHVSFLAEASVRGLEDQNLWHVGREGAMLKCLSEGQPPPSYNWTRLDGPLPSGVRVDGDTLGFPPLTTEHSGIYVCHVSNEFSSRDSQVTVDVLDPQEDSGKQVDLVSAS

T4: mouse mNectin-4 protein (ACRO, NE4-M52H3) (mouse, UniProt Q8R007 31-347)
T4 construct: bought; construct not described; also called mouse Nectin-4
T4 sequence (looked up): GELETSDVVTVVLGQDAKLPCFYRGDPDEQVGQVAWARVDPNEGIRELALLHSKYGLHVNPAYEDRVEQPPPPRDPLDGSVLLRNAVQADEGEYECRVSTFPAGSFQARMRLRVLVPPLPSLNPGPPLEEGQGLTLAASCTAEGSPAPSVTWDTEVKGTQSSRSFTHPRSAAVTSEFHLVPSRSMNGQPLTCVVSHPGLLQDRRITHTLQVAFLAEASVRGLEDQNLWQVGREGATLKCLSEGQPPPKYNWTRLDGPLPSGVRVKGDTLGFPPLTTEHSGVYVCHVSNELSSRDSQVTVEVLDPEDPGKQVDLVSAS


What was measured:
[1] = target: T1, human Nectin-4 extracellular antigen …; assay: ELISA, coated hNectin-4-His
From the text: (§1) The binding activity of the antibodies was detected by ELISA.

[2] = target: T1, human Nectin-4 extracellular antigen …; assay: ELISA, coated hNectin-4-His; remark: listed apart in the source
From the text: as §1

[3] = target: T2, human Nectin-4, full length on cells; assay: flow cytometry on T-47D cells
Procedure: In this study, the binding activity of different antibodies to T-47D cells positive for Nectin-4 expression was detected by FACS, and the EC₅₀ for the binding of antibodies to the cells was analyzed by a four-parameter method. The procedures are briefly described as follows: T-47D cells (the Cell Bank of Chinese Academy of Sciences, TCHu 87) were trypsinized; the antibodies were serially diluted and co-incubated with T-47D cells at 4° C. for 0.5-1 h, followed by the addition of the secondary PE-labeled anti-human Fc antibody (Invitrogen, 12-4998-82); the signal intensity of red fluorescence was detected on a flow cytometer, and curves were plotted using Graphpad Prism and the EC₅₀ was calculated.

[4] = target: T2, human Nectin-4, full length on cells; assay: flow cytometry, T-47D cells, antibody bound on ice, 0 h at 37 C
Procedure: (§2) In this assay, the relative amount of antibodies remaining on the cell surface after co-incubation at 37° C. for a certain period of time was detected by FACS to reflect the endocytosis efficiency. The procedures are briefly described as follows: T-47D cells (human ductal breast cancer cells, derived from the Cell Bank of Chinese Academy of Sciences, Cat.No. TCHu 87); the antibodies of interest were adjusted to 10 µg/mL and co-incubated with the cells on ice for 1 h; the cells were washed 3 times with pre-cooled PBS, and then placed at 37° C. and incubated for 0 h, 2 h and 4 h; 0.2% N₃Na was added to stop the endocytosis reaction; the cells were washed with PBS thrice, followed by the addition of the PE-labeled anti-human Fc secondary antibody (Invitrogen 12-4998-82); the cells were incubated at 4° C. for 30 min; the red fluorescence signal was detected on a flow cytometer.

[5] = target: T1, human Nectin-4 extracellular antigen …; assay: SPR, antibody on Protein A chip, 1:1 fit
From the text: (§3) In this study, the affinity of the antibodies for the human Nectin-4 extracellular antigen was detected by surface plasmon resonance (SPR) technique (BIAcore: GE Healthcare, T200).

[6] = target: T1, human Nectin-4 extracellular antigen …; assay: SPR, antibody on Protein A chip, hNectin-4-His analyte, 1:1 fit
From the text: as §3

[7] = target: T2, human Nectin-4, full length on cells; assay: flow cytometry, T-47D cells, antibody bound on ice, 0 h at 37 C; remark: listed apart in the source
Procedure: as §2

[8] = target: T1, human Nectin-4 extracellular antigen …; assay: SPR (BIAcore T200): antibody captured on a Protein A chip, hNectin-4-His injected at 0-100 nM, 1:1 fit. The sheet prints no unit; M is taken from the column head of Table 12 for the same fits. Table 12 prints 6.03E-09 for ASG-22, so the sheet's number differs from the text.
From the text: as §3

[9] = target: T1, human Nectin-4 extracellular antigen …; assay: ELISA, coated hNectin-4-His; remark: listed apart in the source
From the text: as §1

[10] = target: T3, monkey cNectin-4 protein (ACRO, …); assay: ELISA, coated antigen
[11] = target: T1, human Nectin-4 extracellular antigen …; assay: ELISA, coated antigen
[12] = target: T4, mouse mNectin-4 protein (ACRO, …); assay: ELISA, coated antigen
[13] = target: T1, human Nectin-4 extracellular antigen …; assay: ELISA, coated antigen; remark: listed apart in the source
From the text: as §1
In this assay, the binding of different antibodies to human Nectin-4 homologous proteins hNectin-1 (ACRO, PV1-H5223), hNectin-2 (ACRO, PV2-H52E2), hNectin-3 (ACRO, PV3-H52E4), and hNectin-4-His was detected by ELISA to determine the specificity of the antibodies. For the methodology and procedures, see Example 4. Antigens of interest ([…]) were immobilized; after blocking, serially diluted antibodies (2-fold serially diluted from […]) were added, and HRP-labeled anti-human-Kappa secondary antibody was added for chromogenic reaction.

Binder	EC50 [1]	EC50 [2]	EC50 [3]	MFI (mean fluorescence intensity) 0 h [4]	Kd [5]	koff [5]	kon [5]	Kd [6]	koff [6]	kon [6]	MFI (mean fluorescence intensity) 0 h [7]	Kd [8]	EC50 [9]	EC50 [10]	EC50 [11]	EC50 [12]	EC50 [13]
antibody 1F3-1G11 (antibody, human IgG1, kappa, V domains shown) VH: EVQLVESGGGLVQPGGSLRLSCAASGYSFTGYGMSWVRQAPGKGLEWVSGISPSGGTIGYADSVKGRFTISRDNSKNTLYLQMNSLRAEDTAVYYCARAELLAFDVYTASDYWGQGTLVTVSS VL: DIQMTQSPSSLSASVGDRVTITCRASQGISSYLAWYQQKPGKAPKLLIYAASSLQSGVPSRFSGSGSGTDFTLTISSLQPEDFATYYCQQHYTTPPTFGQGTKVEIKR	0.007 µg/mL				0.815 nM	0.00115 s⁻¹	1.41e+06 M⁻¹ s⁻¹				60500 MFI						
antibody 1B4 (antibody, human IgG1, kappa, V domains shown) VH: not shown VL: DIQMTQSPSSLSASVGDRVTITCRASQGISSYLAWYQQKPGKAPKLLIYAASSLQSGVPSRFSGSGSGTDFTLTISSLQPEDFATYYCQQHYTTPPTFGQGTKVEIKR		0.025 µg/mL		108000 MFI				5.33 nM	0.0032 s⁻¹	600000 M⁻¹ s⁻¹							
antibody 1G12 (antibody, human IgG1, kappa, V domains shown) VH: not shown VL: DIQMTQSPSSLSASVGDRVTITCRASQGISSYLAWYQQKPGKAPKLLIYAASSLQSGVPSRFSGSGSGTDFTLTISSLQPEDFATYYCQQHYTTPPTFGQGTKVEIKR		0.073 µg/mL						8.61 nM	0.00464 s⁻¹	539000 M⁻¹ s⁻¹							
antibody 1F3-2F3 (antibody, human IgG1, kappa, V domains shown) VH: EVQLVESGGGLVQPGGSLRLSCAASGFNFSDYGMSWVRQAPGKGLEWVSRIDWDGGNTRYADSVKGRFTISRDNSKNTLYLQMNSLRAEDTAVYYCARAELLAFDVYTASDYWGQGTLVTVSS VL: DIQMTQSPSSLSASVGDRVTITCRASQGISSYLAWYQQKPGKAPKLLIYAASSLQSGVPSRFSGSGSGTDFTLTISSLQPEDFATYYCQQHYTTPPTFGQGTKVEIKR	0.011 µg/mL				0.37 nM	0.000519 s⁻¹	1.4e+06 M⁻¹ s⁻¹				69000 MFI						
antibody 1G7 (antibody, human IgG1, kappa, V domains shown) VH: not shown VL: DIQMTQSPSSLSASVGDRVTITCRASQGISSYLAWYQQKPGKAPKLLIYAASSLQSGVPSRFSGSGSGTDFTLTISSLQPEDFATYYCQQHYTTPPTFGQGTKVEIKR		0.022 µg/mL						16.7 nM	0.00631 s⁻¹	377000 M⁻¹ s⁻¹							

More lines, now with the values ahead:

EC50 [1]	EC50 [2]	EC50 [3]	MFI (mean fluorescence intensity) 0 h [4]	Kd [5]	koff [5]	kon [5]	Kd [6]	koff [6]	kon [6]	MFI (mean fluorescence intensity) 0 h [7]	Kd [8]	EC50 [9]	EC50 [10]	EC50 [11]	EC50 [12]	EC50 [13]	Binder
0.019 µg/mL	0.042 µg/mL	0.118 µg/mL and 0.788 nM	107000 MFI	10.1 nM and 10.9 nM	0.00581 s⁻¹ and 0.0059 s⁻¹	577000 M⁻¹ s⁻¹ and 540000 M⁻¹ s⁻¹	6.03 nM	0.00436 s⁻¹	723000 M⁻¹ s⁻¹	58600 MFI	6.68 nM	0.042 µg/mL and 0.046 µg/mL	0.033 µg/mL	0.035 µg/mL	1.23 µg/mL		reference antibody ASG-22 (antibody, human IgG1, kappa, V domains shown) VH: EVQLVESGGGLVQPGGSLRLSCAASGFTFSSYNMNWVRQAPGKGLEWVSYISSSSSTIYYADSVKGRFTISRDNAKNSLSLQMNSLRDEDTAVYYCARAYYYGMDVWGQGTLVTVSS VL: DIQMTQSPSSVSASVGDRVTITCRASQGISGWLAWYQQKPGKAPKFLIYAASTLQSGVPSRFSGSGSGTDFTLTISSLQPEDFATYYCQQANSFPPTFGGGTKVEIKR
	0.041 µg/mL		107000 MFI				6.71 nM	0.00232 s⁻¹	346000 M⁻¹ s⁻¹								antibody 10A4 (antibody, human IgG1, kappa, V domains shown) VH: not shown VL: DIQMTQSPSSLSASVGDRVTITCRASQGISSYLAWYQQKPGKAPKLLIYAASSLQSGVPSRFSGSGSGTDFTLTISSLQPEDFATYYCQQHYTTPPTFGQGTKVEIKR
	0.068 µg/mL	0.186 µg/mL and 1.24 nM	105000 MFI				2.1 nM	0.000867 s⁻¹	413000 M⁻¹ s⁻¹				0.042 µg/mL	0.037 µg/mL	0.037 µg/mL	0.062 µg/mL	antibody 3A10 (antibody, human IgG1, kappa, V domains shown) VH: not shown VL: DIQMTQSPSSLSASVGDRVTITCRASQGISSYLAWYQQKPGKAPKLLIYAASSLQSGVPSRFSGSGSGTDFTLTISSLQPEDFATYYCQQHYTTPPTFGQGTKVEIKR
